From US20060270832A1

Target: human noradrenaline transporter (hNET) (human) (UniProt P23975)
Assay: cell-based or functional assay

Chain of human noradrenaline transporter (hNET) (human) (P23975 whole entry): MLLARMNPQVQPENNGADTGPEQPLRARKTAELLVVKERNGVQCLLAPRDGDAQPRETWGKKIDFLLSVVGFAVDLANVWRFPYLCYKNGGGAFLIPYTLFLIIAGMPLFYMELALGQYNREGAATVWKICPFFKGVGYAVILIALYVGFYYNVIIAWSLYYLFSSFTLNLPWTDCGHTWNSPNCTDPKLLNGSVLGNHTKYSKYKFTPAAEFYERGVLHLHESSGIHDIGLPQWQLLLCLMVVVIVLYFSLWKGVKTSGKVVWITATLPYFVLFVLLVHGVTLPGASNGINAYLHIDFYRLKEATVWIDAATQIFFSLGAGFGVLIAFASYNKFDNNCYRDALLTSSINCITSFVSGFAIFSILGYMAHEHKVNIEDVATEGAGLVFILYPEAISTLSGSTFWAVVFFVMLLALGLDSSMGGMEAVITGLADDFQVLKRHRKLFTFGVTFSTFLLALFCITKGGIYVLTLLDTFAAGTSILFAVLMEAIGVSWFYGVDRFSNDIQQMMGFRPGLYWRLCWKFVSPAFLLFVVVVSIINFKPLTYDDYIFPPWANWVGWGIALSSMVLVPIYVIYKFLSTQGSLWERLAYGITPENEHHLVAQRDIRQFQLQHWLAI

Substance: χ-MrIA (peptide)
- Av IC50, inhibition of NA uptake via hNET (log M (unit not given)): -6.3
